Source: publication PMC4601640, “Stability of the Human Hsp90-p50^Cdc37 Chaperone Complex against Nucleotides and Hsp90 Inhibitors, and the Influence of Phosphorylation by Casein Kinase 2” (Molecules, 2015)
Entries after “also recorded” stand apart in the source; their conditions may differ. One block for each substance: values may come before it.

Tests used:
p50Cdc37 1-378 = p50Cdc37 1-378 (UniProt Q16543); test: ELISA on immobilized GST-p50Cdc37, nucleotide dose-response; settings: for other: IC50 of ADP against complex: ADP titration; for other: IC50 of ATP against complex: ATP titration
[1] = target: human full-length Hsp90β (human) (UniProt P08238); test: SEC; analytical Superdex200 10/300 GL, room temperature, 0.3 mL/min; 85 µM protein in 50 mM HEPES pH 7.5, 50 mM KCl, 5 mM MgCl2, 1 mM DTT; fractions on SDS-PAGE
Hsp90β = Hsp90β (UniProt P08238); test: ELISA on immobilized GST-p50Cdc37, nucleotide dose-response; settings: sites S13
[2] = target: Hsp82 (Saccharomyces cerevisiae) (UniProt P02829); settings: cited from earlier work
Hsp82 (Saccharomyces cerevisiae), sequence (P02829 whole entry): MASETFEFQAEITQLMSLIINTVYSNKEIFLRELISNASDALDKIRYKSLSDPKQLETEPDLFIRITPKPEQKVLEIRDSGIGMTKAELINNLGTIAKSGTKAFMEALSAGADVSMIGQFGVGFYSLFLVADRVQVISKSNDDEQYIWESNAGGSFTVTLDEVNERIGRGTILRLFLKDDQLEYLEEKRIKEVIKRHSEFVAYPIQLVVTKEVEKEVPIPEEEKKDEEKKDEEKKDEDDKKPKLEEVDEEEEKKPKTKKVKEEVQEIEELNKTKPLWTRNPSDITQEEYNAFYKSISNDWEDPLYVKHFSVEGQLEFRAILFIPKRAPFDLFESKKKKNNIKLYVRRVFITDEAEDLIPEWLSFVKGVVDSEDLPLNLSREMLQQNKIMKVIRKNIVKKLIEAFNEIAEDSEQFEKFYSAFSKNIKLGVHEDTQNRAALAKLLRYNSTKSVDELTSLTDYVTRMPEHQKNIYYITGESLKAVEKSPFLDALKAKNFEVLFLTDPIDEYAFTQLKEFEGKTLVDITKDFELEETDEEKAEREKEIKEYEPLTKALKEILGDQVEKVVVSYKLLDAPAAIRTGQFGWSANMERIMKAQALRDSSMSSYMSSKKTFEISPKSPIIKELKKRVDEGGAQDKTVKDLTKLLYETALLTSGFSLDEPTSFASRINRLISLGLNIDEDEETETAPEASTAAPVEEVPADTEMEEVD

[3] = reference: unphosphorylated Hsp90β, sites S226,S255
[4] = reference: both proteins unphosphorylated, sites S226,S255,S13

p50Cdc37, sequence (Q16543 whole entry): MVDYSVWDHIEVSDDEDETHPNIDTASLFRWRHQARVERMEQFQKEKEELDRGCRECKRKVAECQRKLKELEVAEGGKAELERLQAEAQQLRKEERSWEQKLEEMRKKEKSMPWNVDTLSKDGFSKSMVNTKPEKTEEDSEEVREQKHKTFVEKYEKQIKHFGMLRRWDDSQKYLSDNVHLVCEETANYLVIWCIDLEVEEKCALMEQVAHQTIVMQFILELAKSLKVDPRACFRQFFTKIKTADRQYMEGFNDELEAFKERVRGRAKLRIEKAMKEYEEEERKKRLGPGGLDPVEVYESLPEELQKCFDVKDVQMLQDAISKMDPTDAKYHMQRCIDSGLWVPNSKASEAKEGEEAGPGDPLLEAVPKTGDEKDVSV
human full-length Hsp90β, P08238 1-724 (natural protein; other documents disagree on this pair), sequence (P08238 whole entry): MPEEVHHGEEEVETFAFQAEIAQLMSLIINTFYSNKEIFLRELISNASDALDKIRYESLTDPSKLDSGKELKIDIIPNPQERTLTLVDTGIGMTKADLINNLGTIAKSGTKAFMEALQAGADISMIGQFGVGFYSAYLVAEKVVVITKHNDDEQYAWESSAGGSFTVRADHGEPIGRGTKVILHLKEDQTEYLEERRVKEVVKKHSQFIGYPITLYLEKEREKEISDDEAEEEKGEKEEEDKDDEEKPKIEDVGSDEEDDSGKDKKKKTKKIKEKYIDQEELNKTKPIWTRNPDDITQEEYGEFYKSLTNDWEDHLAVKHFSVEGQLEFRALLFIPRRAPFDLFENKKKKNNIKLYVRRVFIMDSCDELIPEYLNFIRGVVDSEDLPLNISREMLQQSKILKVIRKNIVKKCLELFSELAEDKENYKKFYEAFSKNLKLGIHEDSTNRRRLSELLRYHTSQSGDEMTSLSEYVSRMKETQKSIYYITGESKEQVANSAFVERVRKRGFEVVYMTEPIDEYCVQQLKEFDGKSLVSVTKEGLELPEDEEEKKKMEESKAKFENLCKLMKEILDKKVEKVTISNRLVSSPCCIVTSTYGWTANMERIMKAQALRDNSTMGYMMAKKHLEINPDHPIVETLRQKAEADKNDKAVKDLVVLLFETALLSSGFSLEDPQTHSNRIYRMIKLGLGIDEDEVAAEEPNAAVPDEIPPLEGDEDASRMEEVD

Substance: Hsp90β (from UniProt P08238) CK2α-phosphorylated Hsp90β, ADP titration
other: IC50 of ADP against complex (p50Cdc37 1-378; [3]): weaker; reference 500 ± 94; also recorded: weaker; reference 270 ± 35

other: IC50 of ATP against complex (p50Cdc37 1-378; [3]): weaker; reference >1000
Substance: Hsp90β (from UniProt P08238) CK2α-phosphorylated Hsp90β, ATP titration

other: IC50 of ADP against complex (p50Cdc37 1-378; [4]): weaker; reference 500 ± 94
Substance: Hsp90β (from UniProt P08238) both proteins CK2α-phosphorylated, ADP titration

other: IC50 of ATP against complex (p50Cdc37 1-378; [4]): weaker; reference >1000
Substance: Hsp90β (from UniProt P08238) both proteins CK2α-phosphorylated, ATP titration

stoichiometry N [1]: 2
Substance: human full-length Hsp90β, P08238 1-724 (natural protein; other documents disagree on this pair)

Substance: p50Cdc37 1-378 (from UniProt Q16543) CK2α-phosphorylated p50Cdc37, ADP titration
other: IC50 of ADP against complex (Hsp90β; reference: unphosphorylated p50Cdc37, ADP titration): weaker; reference 500 ± 94; also recorded: weaker; reference 220 ± 24

other: IC50 of ATP against complex (Hsp90β; reference: unphosphorylated p50Cdc37, ATP titration): same; reference >1000
Substance: p50Cdc37 1-378 (from UniProt Q16543) CK2α-phosphorylated p50Cdc37, ATP titration

Substance: p50Cdc37 (from UniProt Q16543)
Kd [2]: 1460 nM
